Results on three molecules are retold here after paper PMC3599065.

B1: GFP-JIP1-WT, Q9WVI9-1 V581A (protein)
chain: MAERESGLGGGAASPPAASPFLGLHIASPPNFRLTHDISLEEFEDEDLSEITDECGISLQCKDTLSLRPPRAGLLSAGSSGSAGSRLQAEMLQMDLIDAAGDTPGAEDDEEEEDDELAAQRPGVGPPKAESNQDPAPRSQGQGPGTGSGDTYRPKRPTTLNLFPQVPRSQDTLNNNSLGKKHSWQDRVSRSSSPLKTGEQTPPHEHICLSDELPPQGSPVPTQDRGTSTDSPCRRSAATQMAPPSGPPATAPGGRGHSHRDRIHYQADVRLEATEEIYLTPVQRPPDPAEPTSTFMPPTESRMSVSSDPDPAAYSVTAGRPHPSISEEDEGFDCLSSPERAEPPGGGWRGSLGEPPPPPRASLSSDTSALSYDSVKYTLVVDEHAQLELVSLRPCFGDYSDESDSATVYDNCASASSPYESAIGEEYEEAPQPRPPTCLSEDSTPDEPDVHFSKKFLNVFMSGRSRSSSAESFGLFSCVINGEEHEQTHRAIFRFVPRHEDELELEVDDPLLVELQAEDYWYEAYNMRTGARGVFPAYYAIEVTKEPEHMAALAKNSDWIDQFRVKFLGSVQVPYHKGNDALCAAMQKIATTRRLTVHFNPPSSCVLEISVRGVKIGVKADDALEAKGNKCSHFFQLKNISFCGYHPKNNKYFGFITKHPADHRFACHVFVSEDSTKALAESVGRAFQQFYKQFVEYTCPTEDIYLE
B2: GFP-JIP1-WT, Q9WVI9-1 F687V (protein)
chain: MAERESGLGGGAASPPAASPFLGLHIASPPNFRLTHDISLEEFEDEDLSEITDECGISLQCKDTLSLRPPRAGLLSAGSSGSAGSRLQAEMLQMDLIDAAGDTPGAEDDEEEEDDELAAQRPGVGPPKAESNQDPAPRSQGQGPGTGSGDTYRPKRPTTLNLFPQVPRSQDTLNNNSLGKKHSWQDRVSRSSSPLKTGEQTPPHEHICLSDELPPQGSPVPTQDRGTSTDSPCRRSAATQMAPPSGPPATAPGGRGHSHRDRIHYQADVRLEATEEIYLTPVQRPPDPAEPTSTFMPPTESRMSVSSDPDPAAYSVTAGRPHPSISEEDEGFDCLSSPERAEPPGGGWRGSLGEPPPPPRASLSSDTSALSYDSVKYTLVVDEHAQLELVSLRPCFGDYSDESDSATVYDNCASASSPYESAIGEEYEEAPQPRPPTCLSEDSTPDEPDVHFSKKFLNVFMSGRSRSSSAESFGLFSCVINGEEHEQTHRAIFRFVPRHEDELELEVDDPLLVELQAEDYWYEAYNMRTGARGVFPAYYAIEVTKEPEHMAALAKNSDWIDQFRVKFLGSVQVPYHKGNDVLCAAMQKIATTRRLTVHFNPPSSCVLEISVRGVKIGVKADDALEAKGNKCSHFFQLKNISFCGYHPKNNKYFGFITKHPADHRFACHVFVSEDSTKALAESVGRAVQQFYKQFVEYTCPTEDIYLE
B3: GFP-JIP1-WT, Q9WVI9-1 F642V (protein)
chain: MAERESGLGGGAASPPAASPFLGLHIASPPNFRLTHDISLEEFEDEDLSEITDECGISLQCKDTLSLRPPRAGLLSAGSSGSAGSRLQAEMLQMDLIDAAGDTPGAEDDEEEEDDELAAQRPGVGPPKAESNQDPAPRSQGQGPGTGSGDTYRPKRPTTLNLFPQVPRSQDTLNNNSLGKKHSWQDRVSRSSSPLKTGEQTPPHEHICLSDELPPQGSPVPTQDRGTSTDSPCRRSAATQMAPPSGPPATAPGGRGHSHRDRIHYQADVRLEATEEIYLTPVQRPPDPAEPTSTFMPPTESRMSVSSDPDPAAYSVTAGRPHPSISEEDEGFDCLSSPERAEPPGGGWRGSLGEPPPPPRASLSSDTSALSYDSVKYTLVVDEHAQLELVSLRPCFGDYSDESDSATVYDNCASASSPYESAIGEEYEEAPQPRPPTCLSEDSTPDEPDVHFSKKFLNVFMSGRSRSSSAESFGLFSCVINGEEHEQTHRAIFRFVPRHEDELELEVDDPLLVELQAEDYWYEAYNMRTGARGVFPAYYAIEVTKEPEHMAALAKNSDWIDQFRVKFLGSVQVPYHKGNDVLCAAMQKIATTRRLTVHFNPPSSCVLEISVRGVKIGVKADDALEAKGNKCSHFFQLKNISVCGYHPKNNKYFGFITKHPADHRFACHVFVSEDSTKALAESVGRAFQQFYKQFVEYTCPTEDIYLE

kinesin-1 (endogenous, Neuro2a), Q61768;O88447, sequence (chain, as listed by the source, chain 1 of 2): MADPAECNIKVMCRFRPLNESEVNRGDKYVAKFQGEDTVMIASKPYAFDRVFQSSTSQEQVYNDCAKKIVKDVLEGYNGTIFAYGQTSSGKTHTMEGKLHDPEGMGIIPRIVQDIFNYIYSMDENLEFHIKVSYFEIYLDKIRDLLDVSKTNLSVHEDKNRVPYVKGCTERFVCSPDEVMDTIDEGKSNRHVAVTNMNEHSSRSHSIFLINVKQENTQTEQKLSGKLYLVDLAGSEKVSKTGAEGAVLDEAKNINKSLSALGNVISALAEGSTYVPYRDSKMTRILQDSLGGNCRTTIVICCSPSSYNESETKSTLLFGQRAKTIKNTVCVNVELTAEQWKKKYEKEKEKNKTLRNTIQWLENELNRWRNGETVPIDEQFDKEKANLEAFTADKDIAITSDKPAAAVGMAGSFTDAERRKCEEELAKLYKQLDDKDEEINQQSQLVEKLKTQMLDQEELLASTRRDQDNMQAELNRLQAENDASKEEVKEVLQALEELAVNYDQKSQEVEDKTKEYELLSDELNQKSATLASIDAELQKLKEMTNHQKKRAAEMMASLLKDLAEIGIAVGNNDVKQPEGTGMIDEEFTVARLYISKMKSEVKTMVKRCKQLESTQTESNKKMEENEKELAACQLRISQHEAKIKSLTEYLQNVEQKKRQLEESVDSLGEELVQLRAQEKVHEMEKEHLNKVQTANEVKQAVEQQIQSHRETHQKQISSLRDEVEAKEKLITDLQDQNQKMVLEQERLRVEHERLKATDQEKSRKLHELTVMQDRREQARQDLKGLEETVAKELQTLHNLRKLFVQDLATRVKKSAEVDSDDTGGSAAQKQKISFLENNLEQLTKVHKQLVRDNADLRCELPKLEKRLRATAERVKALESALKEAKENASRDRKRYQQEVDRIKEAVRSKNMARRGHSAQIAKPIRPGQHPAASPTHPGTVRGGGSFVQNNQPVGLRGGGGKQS
kinesin-1 (endogenous, Neuro2a), Q61768;O88447, sequence (chain, as listed by the source, chain 2 of 2): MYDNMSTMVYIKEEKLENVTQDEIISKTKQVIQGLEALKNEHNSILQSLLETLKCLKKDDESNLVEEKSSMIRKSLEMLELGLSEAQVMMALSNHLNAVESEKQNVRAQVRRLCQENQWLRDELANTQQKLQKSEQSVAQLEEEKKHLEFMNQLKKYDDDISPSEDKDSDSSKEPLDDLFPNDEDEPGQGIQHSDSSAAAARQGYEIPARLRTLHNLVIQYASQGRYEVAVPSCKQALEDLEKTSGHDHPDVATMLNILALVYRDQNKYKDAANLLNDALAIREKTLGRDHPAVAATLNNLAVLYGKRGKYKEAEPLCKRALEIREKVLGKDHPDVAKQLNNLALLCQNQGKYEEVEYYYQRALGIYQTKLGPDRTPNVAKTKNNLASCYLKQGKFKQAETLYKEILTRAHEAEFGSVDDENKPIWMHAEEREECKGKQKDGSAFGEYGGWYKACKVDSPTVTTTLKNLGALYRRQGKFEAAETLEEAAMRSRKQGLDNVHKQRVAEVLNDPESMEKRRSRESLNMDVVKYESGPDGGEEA

This test addresses kinesin-1 (endogenous, Neuro2a), Q61768;O88447. As to the kind of experiment: co-immunoprecipitation with anti-GFP antibody, western blot for KHC, quantified. The following applies: chain shown with the change, lysates of Neuro2a cells expressing GFP-JIP1 constructs, kinesin-1 signal normalized to precipitated GFP-JIP1, n > 3. A general note: In western blotting, separated proteins are transferred to a membrane and probed.
For B1, the percent of parent was determined as 13.4.

Take B2: the percent of parent amounted to 25.4.

On to B3, for which the percent of parent was 3.7.
